According to patent US20230002497A1 (INSERM INSTITUT NATIONAL DE LA SANTE ET DE LA RECHERCHE …, published 2023):

Molecular target: T1, recombinant human IL-20Rb (human, UniProt Q6UXL0 30-233)
T1 construct: also called human recombinant IL-20RB; recombinant IL-20RB
T1 sequence: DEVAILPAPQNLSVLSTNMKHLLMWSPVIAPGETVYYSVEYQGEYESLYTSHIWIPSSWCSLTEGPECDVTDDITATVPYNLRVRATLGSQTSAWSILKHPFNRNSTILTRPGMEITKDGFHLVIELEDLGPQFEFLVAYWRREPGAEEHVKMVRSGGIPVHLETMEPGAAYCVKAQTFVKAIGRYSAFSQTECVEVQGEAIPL
Test: ELISA on coated recombinant IL-20Rb (FIG. 8)

B1: B7 antibody (native B7 clone), human anti-IL-20Rb antibody (antibody, mouse IgG2a, V domains shown)
VH: EVQLVESGGSLVKPGGSLRLSCAASGFTFSNYSMNWVRQAPGKGLEWISYISGSSRYISYADFVKGRFTISRDNATNSLYLQMNSLRAEDTAVYYCVRSYYGMDVWGRGTLVTVSS
VL: QSVLTQPASVSGSPGQSITISCAGTSSDVGGNYYVSWYQQHPGKAPKLMIYGDSYRPSGVSNRFSGSKSGNTASLTISGLQAEDEADYYCSSYTYYSTRVFGGGTKLAVLG
binding result: binds
